System: MS2 coat protein
Assay: apparent KD of MS2 coat protein; designed switch direction (-1 OFF switch, 1 ON switch): -1; higher = weaker reporter binding
Method in brief: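 The buffer was Tris-HCl pH 7.5 with KCl, MgCl2, BSA, DTT, tRNA and Tween-20. In it, SNAP-549-labelled MS2 coat protein was titrated in doubling steps from 0.7 or 1.5 nM to 3 µM over chip-bound RNA switches transcribed by stalled E. coli RNA polymerase on Illumina chips. Apparent KD is the per-design median over clusters of curve fits to normalised fluorescence.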

[1] = input ligand: microRNA oligo, concentration not stated
[2] = Eterna round: R95, input ligand: microRNA oligo, concentration not stated
[3] = Eterna round: R95, input ligand: FMN 200 uM
[4] = Eterna round: R95, input ligand: none

Q: “AGUAGUUCAGGAUAUGAUGAAGAGAACAUGAGGAUCACCCAUGUUGCAUCGUUUUUAUCAUCAGAAGGGAAUAACU [JR_Ex5_Sub085] (Eterna round: R97, puzzle: Exclusion 5)” was tested. Which “apparent KD of MS2 coat protein” value (input ligand: FMN 200 uM) did it give?
A: 12.7 nM

Q: What about the “apparent KD of MS2 coat protein” value (input ligand: none) of the same sequence?
A: 13.1 nM

Q: “UAUAUAUAGUAAGGAUAUGUAAUUACUUUAUAAACAGAAGGUACUGACAUGAGGAUCACCCAUGUUUUAGUGUGGGCAUGUAGA [JMF's solution 37] (Eterna round: R96, puzzle: Exclusion NG 1)” was tested. Which “apparent KD of MS2 coat protein” value [1] did it give?
A: 70.1 nM

Q: “ACGCAUUGCCUUUGGUAGUGCGUAACAUGAGGAUCACCCAUGUAGGAUAUGGUAGGCAAAGCUUACCAGAAGGACAUAAUAAUU [Mat - Exclusion NG 3 - Mod of JL - D3] (Eterna round: R96, puzzle: Exclusion NG 3)” was tested. Which “apparent KD of MS2 coat protein” value (input ligand: FMN 200 uM) did it give?
A: 73 nM

Q: What about the “apparent KD of MS2 coat protein” value [1] of the same sequence?
A: 31.4 nM

Q: What about the “apparent KD of MS2 coat protein” value (input ligand: none) of the same sequence?
A: 32.7 nM

Q: How did the “apparent KD of MS2 coat protein” value [2] turn out when “ACUAGAUGAGGAUAUGCAUGUUUUCGUGUUCUUCUAGAUUAACAUGAGGAUCACCCAUGUAGAAGGCGUCAAUU [Exclusion 2 - 28] (puzzle: Exclusion 2)” was run?
A: 48 nM

Q: Which “apparent KD of MS2 coat protein” value [2] does the source give for “CGUGCGUAUGUGAGGAUAUGCUGGUCCUUGGAUCAGCAGAAGGCACAUGAGGAUCACCCAUGUGGUGUCGUACC [salish99_Bmod_Ex4_001] (puzzle: Brourd's mod of Exclusion 4)” here?
A: 170 nM

Q: For “AGUAGUUGUUUCCGUUCUUACAUGAGGAUCACCCAUGUUUCUUGUCGUGCUCGCGAUGCUCGUCAGACUACCAGAUG [salish99_TOv1_r3_059] (Eterna round: R96, puzzle: Sensor v3, turn-off variant 1)”, which “apparent KD of MS2 coat protein” value (input ligand: FMN 200 uM) is on record?
A: 63 nM

Q: What about the “apparent KD of MS2 coat protein” value [1] of the same sequence?
A: 40.6 nM

Q: And the “apparent KD of MS2 coat protein” value (input ligand: none)?
A: 59.1 nM

Q: How did the “apparent KD of MS2 coat protein” value (input ligand: FMN 200 uM) turn out when “ACAUGAGGAUCACCCAUGUCAGGCGGGUCCACUCCGGCUGUUGAGGAUAUAGCCCGGUAUCCGCGCUAGAAGGUGAGGGCCGGC [Aenatbe mod 25] (Eterna round: R96, puzzle: Exclusion NG 3)” was run?
A: 23.1 nM

Q: What about the “apparent KD of MS2 coat protein” value [1] of the same sequence?
A: 18.4 nM

Q: What about the “apparent KD of MS2 coat protein” value (input ligand: none) of the same sequence?
A: 24.1 nM

Q: “UGCUAGUGAGGAUAUGCUGGAAUAAAGAUUUGACGUGGCGAACAUGAGGAUCACCCAUGUAGAAGGCACAAUAC [Ususedes] (puzzle: Exclusion 2)” was tested. Which “apparent KD of MS2 coat protein” value [2] did it give?
A: 12.1 nM

Q: For “CGGUGCUGAGGAUAUACAUGAGGAUCACCCAUGUGUUCCAGCUAGGUGACUGGCGGAUGUAGAAGGCGGUACUG [JL-ex3-3.39 Brourd mod] (puzzle: Exclusion 3)”, which “apparent KD of MS2 coat protein” value [3] is on record?
A: 245 nM

Q: What about the “apparent KD of MS2 coat protein” value [2] of the same sequence?
A: 31.2 nM

Q: What about the “apparent KD of MS2 coat protein” value [4] of the same sequence?
A: 64.8 nM

Q: With “CGGGACGUCCUGAUAAUAAGACAUGAGGAUCACCCAUGUCGGCAGGAUAUCAGUCCUUACGGUUUUGAGAAGGGUCGACAACCA [Birace] (Eterna round: R96, puzzle: Exclusion NG 3)” as the sequence, how does the “apparent KD of MS2 coat protein” value (input ligand: FMN 200 uM) read?
A: 14.1 nM

Q: And the “apparent KD of MS2 coat protein” value [1]?
A: 8.27 nM

Q: And the “apparent KD of MS2 coat protein” value (input ligand: none)?
A: 13.4 nM

Q: With “GGUAGAGUGGUAGGAUAUCCGUCUGUUUCAGUCGGAGAAGGACCACAGUCACUGGGUCCAAAUAUGGGUGACCAUGUAUCUACC [pwkr exNG1 F6.3] (Eterna round: R96, puzzle: Exclusion NG 1)” as the sequence, how does the “apparent KD of MS2 coat protein” value (input ligand: FMN 200 uM) read?
A: 622 nM

Q: And the “apparent KD of MS2 coat protein” value [1]?
A: 358 nM

Q: What about the “apparent KD of MS2 coat protein” value (input ligand: none) of the same sequence?
A: 392 nM

Q: What does the source list for “ACUUAUUGAGGAUAUACAUAAAUUUACAUGAGGAUCACCCAUGUUCUUCUAUGUAUAUAUGUAGAAGGCAGAAGAG [Mat - Exclusion 5 - JL Mod - D33] (Eterna round: R97, puzzle: Exclusion 5)”?
A: apparent KD of MS2 coat protein (input ligand: FMN 200 uM): 30.1 nM; apparent KD of MS2 coat protein (input ligand: none): 17.2 nM

Q: For “ACGAAGCACGAGGAUAUGACCAUAGUGAUAUGGUCAGAAGGCGUAACAUGAGGAUCACCCAUGUAGUGGCCUCG [Eternabot (Original) Solution 12] (Eterna round: R97, puzzle: Exclusion 6)”, which “apparent KD of MS2 coat protein” value (input ligand: FMN 200 uM) is on record?
A: 212 nM

Q: What about the “apparent KD of MS2 coat protein” value (input ligand: none) of the same sequence?
A: 20.1 nM

Q: Which “apparent KD of MS2 coat protein” value [3] does the source give for “UACUUCCGAGGAUAUACAUGAGGAUCACCCAUGUGCUUCAGCAUUGAAAGAUGCAUGGGUAGAAGGCGGUAGUU [LRO-Excl3-18] (puzzle: Exclusion 3)” here?
A: 253 nM

Q: What about the “apparent KD of MS2 coat protein” value [2] of the same sequence?
A: 297 nM

Q: What about the “apparent KD of MS2 coat protein” value [4] of the same sequence?
A: 171 nM

Q: What does the source list for “GGUCAAGAACAGAUCCGCGCUGUCAUUGACCGCUCAUUUACAUGAGGAUCACCCAUGUUUUUUGCUUGUCUUGUUAC [Edrama] (puzzle: Sensor v3, turn-off variant 2)”?
A: apparent KD of MS2 coat protein [3]: 19.6 nM; apparent KD of MS2 coat protein [2]: 88.3 nM; apparent KD of MS2 coat protein [4]: 18.2 nM

Q: Which results are given for “UACAUGAGGAUCACCCAUGUUUUGUCGUGUAUGGUAUUUAUCUAGGAUAUCAUUUUAUUUAUUUAUGAGAAGGAGAAUAUUAAU [JMF's solution 6] (Eterna round: R96, puzzle: Exclusion NG 3)”?
A: apparent KD of MS2 coat protein (input ligand: FMN 200 uM): 49.4 nM; apparent KD of MS2 coat protein [1]: 27 nM; apparent KD of MS2 coat protein (input ligand: none): 37.2 nM

Q: Which results are given for “AAGACGCGUGUAAGGAUAUCGAAAGCCCGAGGCGACGAGAAGGUACAUGAGGAUCACCCAUGUGCAGAUCACAA [BmEX4 B.3] (Eterna round: R97, puzzle: Brourd's mod of Exclusion 4)”?
A: apparent KD of MS2 coat protein (input ligand: FMN 200 uM): 18.9 nM; apparent KD of MS2 coat protein (input ligand: none): 17.3 nM

Q: With “UUUUAACAUGAGGAUCACCCAUGUGAGGAUAUCGAUUUUUUUAUUAAUAUUAAUAAAACGAGAAGGCACAUUUU [JMF 19] (puzzle: Exclusion 1)” as the sequence, how does the “apparent KD of MS2 coat protein” value [2] read?
A: 73.5 nM

Q: With “AAAGAUGGAGGAUAUACAUGAGGAUCACCCAUGUAGAAAAAAAAUUGGGAAAAAGAAAGUAGAAGGCCAAAAAA [Ex 3 May 43] (Eterna round: R96, puzzle: Exclusion 3)” as the sequence, how does the “apparent KD of MS2 coat protein” value (input ligand: FMN 200 uM) read?
A: 67.6 nM

Q: What about the “apparent KD of MS2 coat protein” value [1] of the same sequence?
A: 25.6 nM

Q: What about the “apparent KD of MS2 coat protein” value (input ligand: none) of the same sequence?
A: 36.5 nM

Q: For “AGUAACCGUCACGAAAGUGAUGGUUACACAAGCAAAUGUACAUGAGGAUCACCCAUGUCCUCAUUUGCUCGUCUUAU [Sensor 3 - 45] (puzzle: Sensor v3, turn-off variant 2)”, which “apparent KD of MS2 coat protein” value [3] is on record?
A: 17.2 nM

Q: And the “apparent KD of MS2 coat protein” value [2]?
A: 379 nM

Q: And the “apparent KD of MS2 coat protein” value [4]?
A: 18.3 nM

Q: With “GAAUGAGAGCAGGAUAUCUUAUAAAUGUAUGAAAGAGAAGGGCUCACAUGAGGAUCACCCAUGUGGUCCUAGAC [jl-ex6-4.72 jandersonlee mod] (Eterna round: R97, puzzle: Exclusion 6)” as the sequence, how does the “apparent KD of MS2 coat protein” value (input ligand: FMN 200 uM) read?
A: 309 nM

Q: What about the “apparent KD of MS2 coat protein” value (input ligand: none) of the same sequence?
A: 40.1 nM

Q: “UUCAUGUGAGGAUAUUAGUAGUAAAUAAAUAAAAUUAUUACUGAGAAGGUACAUGAGGAUCACCCAUGUUCCUU [Salish 062 v22] (Eterna round: R97, puzzle: Exclusion 4)” was tested. Which “apparent KD of MS2 coat protein” value (input ligand: FMN 200 uM) did it give?
A: 18.5 nM

Q: What about the “apparent KD of MS2 coat protein” value (input ligand: none) of the same sequence?
A: 13.9 nM

Q: Which “apparent KD of MS2 coat protein” value [3] does the source give for “ACCUCACAUGAGGAUCACCCAUGUCAGGAUAUACAAGAAAAUAACCGGAAAGAACGGAGUAGAAGGGACAUAAG [Zatigeri] (puzzle: Exclusion 1)” here?
A: 28.1 nM

Q: And the “apparent KD of MS2 coat protein” value [2]?
A: 15.3 nM

Q: And the “apparent KD of MS2 coat protein” value [4]?
A: 15.8 nM
